Reference: US20250171562A1

B1: CIgG4F2A1(RS) (Fc fusion)
chain 1: GPPCPPCPAPEFLGGPSVFLFPPKPKDTLMISRTPEVTCVVVDVSQEDPEVQFNWYVDGVEVHNAKTKPREEQFNSTYRVVSVLTVLHQDWLNGKEYKCKVSNKGLPSSIEKTISKAKGQPREPQVYTLPPCQEEMTKNQVSLWCLVKGFYPSDIAVEWESNGQPENNYKTTPPVLDSDGSFFLYSRLTVDKSRWQEGNVFSCSVMHEALHNHYTQKSLSLSLGKRSDVQLQESGGGLVQAGGSLKLSCAASGGSLSRYDMGWFRQAPGKEREFVARISWSGDTKYYADAVEGRFAISRDNAQNTVYLQMNSLKPEDTAVYYCAVALYGNRGYYDVNTYSYWGQGTRVTVS
chain 2: GPPCPPCPAPEFLGGPSVFLFPPKPKDTLMISRTPEVTCVVVDVSQEDPEVQFNWYVDGVEVHNAKTKPREEQFNSTYRVVSVLTVLHQDWLNGKEYKCKVSNKGLPSSIEKTISKAKGQPREPQVCTLPPSQEEMTKNQVSLSCAVKGFYPSDIAVEWESNGQPENNYKTTPPVLDSDGSFFLVSRLTVDKSRWQEGNVFSCSVMHEALHNHYTQKSLSLSLGKRSEVQLLESGGGLVQPGGSLRLSCAASGFTFGNYDMAWVRQAPGKRPEWVSSIDTGGDITHYADSVKGRFTISRDNAKNTLYLQMNSLRPEDTAVYWCATDEEYALGPNEFDYYGQGTLVTVSS
B2: CIgG4F2A1(G4S)3 (Fc fusion)
chain 1: GPPCPPCPAPEFLGGPSVFLFPPKPKDTLMISRTPEVTCVVVDVSQEDPEVQFNWYVDGVEVHNAKTKPREEQFNSTYRVVSVLTVLHQDWLNGKEYKCKVSNKGLPSSIEKTISKAKGQPREPQVYTLPPCQEEMTKNQVSLWCLVKGFYPSDIAVEWESNGQPENNYKTTPPVLDSDGSFFLYSRLTVDKSRWQEGNVFSCSVMHEALHNHYTQKSLSLSLGKGGGGSGGGGSGGGGSDVQLQESGGGLVQAGGSLKLSCAASGGSLSRYDMGWFRQAPGKEREFVARISWSGDTKYYADAVEGRFAISRDNAQNTVYLQMNSLKPEDTAVYYCAVALYGNRGYYDVNTYSYWGQGTRVTVS
chain 2: GPPCPPCPAPEFLGGPSVFLFPPKPKDTLMISRTPEVTCVVVDVSQEDPEVQFNWYVDGVEVHNAKTKPREEQFNSTYRVVSVLTVLHQDWLNGKEYKCKVSNKGLPSSIEKTISKAKGQPREPQVCTLPPSQEEMTKNQVSLSCAVKGFYPSDIAVEWESNGQPENNYKTTPPVLDSDGSFFLVSRLTVDKSRWQEGNVFSCSVMHEALHNHYTQKSLSLSLGKGGGGSGGGGSGGGGSEVQLLESGGGLVQPGGSLRLSCAASGFTFGNYDMAWVRQAPGKRPEWVSSIDTGGDITHYADSVKGRFTISRDNAKNTLYLQMNSLRPEDTAVYWCATDEEYALGPNEFDYYGQGTLVTVSS
B3: CIgG4F2A1(G4S)2 (Fc fusion)
chain 1: GPPCPPCPAPEFLGGPSVFLFPPKPKDTLMISRTPEVTCVVVDVSQEDPEVQFNWYVDGVEVHNAKTKPREEQFNSTYRVVSVLTVLHQDWLNGKEYKCKVSNKGLPSSIEKTISKAKGQPREPQVYTLPPCQEEMTKNQVSLWCLVKGFYPSDIAVEWESNGQPENNYKTTPPVLDSDGSFFLYSRLTVDKSRWQEGNVFSCSVMHEALHNHYTQKSLSLSLGKGGGGSGGGGSDVQLQESGGGLVQAGGSLKLSCAASGGSLSRYDMGWFRQAPGKEREFVARISWSGDTKYYADAVEGRFAISRDNAQNTVYLQMNSLKPEDTAVYYCAVALYGNRGYYDVNTYSYWGQGTRVTVS
chain 2: GPPCPPCPAPEFLGGPSVFLFPPKPKDTLMISRTPEVTCVVVDVSQEDPEVQFNWYVDGVEVHNAKTKPREEQFNSTYRVVSVLTVLHQDWLNGKEYKCKVSNKGLPSSIEKTISKAKGQPREPQVCTLPPSQEEMTKNQVSLSCAVKGFYPSDIAVEWESNGQPENNYKTTPPVLDSDGSFFLVSRLTVDKSRWQEGNVFSCSVMHEALHNHYTQKSLSLSLGKGGGGSGGGGSEVQLLESGGGLVQPGGSLRLSCAASGFTFGNYDMAWVRQAPGKRPEWVSSIDTGGDITHYADSVKGRFTISRDNAKNTLYLQMNSLRPEDTAVYWCATDEEYALGPNEFDYYGQGTLVTVSS
B4: NIgG4F3A1(RS) (Fc fusion)
chain 1: DVQLQESGGGLVQAGGSLKLSCAASRGSLSRWDVAWFRQAPGKERSFVTRISWSGTTSYYADAVKGRFAISRDNAKNTVYLQMNSLKPEDTAVYYCAVALYGNRGYYDVNAHSYWGQGTQVTVSRSGPPCPPCPAPEFLGGPSVFLFPPKPKDTLMISRTPEVTCVVVDVSQEDPEVQFNWYVDGVEVHNAKTKPREEQFNSTYRVVSVLTVLHQDWLNGKEYKCKVSNKGLPSSIEKTISKAKGQPREPQVYTLPPCQEEMTKNQVSLWCLVKGFYPSDIAVEWESNGQPENNYKTTPPVLDSDGSFFLYSRLTVDKSRWQEGNVFSCSVMHEALHNHYTQKSLSLSLGK
chain 2: EVQLLESGGGLVQPGGSLRLSCAASGFTFGNYDMAWVRQAPGKRPEWVSSIDTGGDITHYADSVKGRFTISRDNAKNTLYLQMNSLRPEDTAVYWCATDEEYALGPNEFDYYGQGTLVTVSSRSGPPCPPCPAPEFLGGPSVFLFPPKPKDTLMISRTPEVTCVVVDVSQEDPEVQFNWYVDGVEVHNAKTKPREEQFNSTYRVVSVLTVLHQDWLNGKEYKCKVSNKGLPSSIEKTISKAKGQPREPQVCTLPPSQEEMTKNQVSLSCAVKGFYPSDIAVEWESNGQPENNYKTTPPVLDSDGSFFLVSRLTVDKSRWQEGNVFSCSVMHEALHNHYTQKSLSLSLGK
B5: CIgG4F2A1(G4S)1 (Fc fusion)
chain 1: GPPCPPCPAPEFLGGPSVFLFPPKPKDTLMISRTPEVTCVVVDVSQEDPEVQFNWYVDGVEVHNAKTKPREEQFNSTYRVVSVLTVLHQDWLNGKEYKCKVSNKGLPSSIEKTISKAKGQPREPQVYTLPPCQEEMTKNQVSLWCLVKGFYPSDIAVEWESNGQPENNYKTTPPVLDSDGSFFLYSRLTVDKSRWQEGNVFSCSVMHEALHNHYTQKSLSLSLGKGGGGSDVQLQESGGGLVQAGGSLKLSCAASGGSLSRYDMGWFRQAPGKEREFVARISWSGDTKYYADAVEGRFAISRDNAQNTVYLQMNSLKPEDTAVYYCAVALYGNRGYYDVNTYSYWGQGTRVTVS
chain 2: GPPCPPCPAPEFLGGPSVFLFPPKPKDTLMISRTPEVTCVVVDVSQEDPEVQFNWYVDGVEVHNAKTKPREEQFNSTYRVVSVLTVLHQDWLNGKEYKCKVSNKGLPSSIEKTISKAKGQPREPQVCTLPPSQEEMTKNQVSLSCAVKGFYPSDIAVEWESNGQPENNYKTTPPVLDSDGSFFLVSRLTVDKSRWQEGNVFSCSVMHEALHNHYTQKSLSLSLGKGGGGSEVQLLESGGGLVQPGGSLRLSCAASGFTFGNYDMAWVRQAPGKRPEWVSSIDTGGDITHYADSVKGRFTISRDNAKNTLYLQMNSLRPEDTAVYWCATDEEYALGPNEFDYYGQGTLVTVSS
B6: NIgG4F2A1(G4S)3 (Fc fusion)
chain 1: DVQLQESGGGLVQAGGSLKLSCAASGGSLSRYDMGWFRQAPGKEREFVARISWSGDTKYYADAVEGRFAISRDNAQNTVYLQMNSLKPEDTAVYYCAVALYGNRGYYDVNTYSYWGQGTRVTVSGGGGSGGGGSGGGGSGPPCPPCPAPEFLGGPSVFLFPPKPKDTLMISRTPEVTCVVVDVSQEDPEVQFNWYVDGVEVHNAKTKPREEQFNSTYRVVSVLTVLHQDWLNGKEYKCKVSNKGLPSSIEKTISKAKGQPREPQVYTLPPCQEEMTKNQVSLWCLVKGFYPSDIAVEWESNGQPENNYKTTPPVLDSDGSFFLYSRLTVDKSRWQEGNVFSCSVMHEALHNHYTQKSLSLSLGK
chain 2: EVQLLESGGGLVQPGGSLRLSCAASGFTFGNYDMAWVRQAPGKRPEWVSSIDTGGDITHYADSVKGRFTISRDNAKNTLYLQMNSLRPEDTAVYWCATDEEYALGPNEFDYYGQGTLVTVSSGGGGSGGGGSGGGGSGPPCPPCPAPEFLGGPSVFLFPPKPKDTLMISRTPEVTCVVVDVSQEDPEVQFNWYVDGVEVHNAKTKPREEQFNSTYRVVSVLTVLHQDWLNGKEYKCKVSNKGLPSSIEKTISKAKGQPREPQVCTLPPSQEEMTKNQVSLSCAVKGFYPSDIAVEWESNGQPENNYKTTPPVLDSDGSFFLVSRLTVDKSRWQEGNVFSCSVMHEALHNHYTQKSLSLSLGK

target: mixture of three Der p 2 specific recombinant human IgE clones H10, H12, P4E (human) (UniProt P01854); assay: RBL-SX38 IgE displacement, FACS
Sequence (P01854 other isoform, or with tags, fused parts or gaps): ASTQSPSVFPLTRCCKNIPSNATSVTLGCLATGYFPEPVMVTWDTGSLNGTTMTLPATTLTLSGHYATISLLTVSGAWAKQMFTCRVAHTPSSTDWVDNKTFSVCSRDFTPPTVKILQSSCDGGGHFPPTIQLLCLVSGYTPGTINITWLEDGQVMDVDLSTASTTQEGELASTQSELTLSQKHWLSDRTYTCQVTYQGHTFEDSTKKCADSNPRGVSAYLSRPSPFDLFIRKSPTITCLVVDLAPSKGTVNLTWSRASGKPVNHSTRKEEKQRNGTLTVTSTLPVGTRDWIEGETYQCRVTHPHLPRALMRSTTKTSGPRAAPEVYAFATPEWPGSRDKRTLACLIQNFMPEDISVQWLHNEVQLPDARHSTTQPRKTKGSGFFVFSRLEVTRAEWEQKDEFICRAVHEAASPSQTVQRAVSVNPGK

First: B1
Second: B2
The Max effect/effect 1 µM of the first is higher: 3% for the first, 2% for the second.

Going from B3 to B4, the Max effect/effect 1 µM rises from 0% to 93%.

Going from B5 to B6, the Max effect/effect 1 µM rises from 11% to 95%.

B4 and B6 are the same in EC50: 2 nM for the first, 2 nM for the second.
